Experimental data as given in US20150273076A1, “SP1 POLYPEPTIDES, MODIFIED SP1 POLYPEPTIDES AND USES THEREOF” (Fulcrum SP Ltd., priority 2006, published 2015).
Values after ≈ are worked out from the molar mass of the structure shown.

Experiments:
[1] = tested on: Human colon adenocarcinoma (HT-29) cells; assay: In-vitro cytotoxicity in HT-29 cells; format: cell-based
Excerpt: FIGS. 24a and 24b are graphs illustrating the in-vitro cytotoxic effects of SP1-DOX complex. FIG. 24a—HT-29 cells cultured in 96 well microtiter plates were exposed to uncomplexed DOX (closed oval, magenta) or SP1-DOX complex (closed triangle, blue) prepared as described in FIGS. 9-15, at the indicated concentrations. FIG. 24b—HT-29 cells were exposed to uncomplexed SP1 (without DOX) (closed diamond, blue) or SP1-DOX complex (closed triangle, yellow) at indicated concentrations. Proportion of living cells was determined by MTT assay, and the IC50 was calculated.
HT-29 cells were prepared as in FIG. 24 above.
Human colon adenocarcinoma (HT-29) cells. The cells were grown in 50-ml flasks containing DMEM medium (Biological Industries, Bet Haemek), supplemented with 10% fetal calf serum, 1% glutamine and 1% Antibiotic-Antimicotic solution (Biolab, Israel). The cells were trypsinizated, and 2 ml medium containing 5×10^4 cells were plated in each well of a 6-wells plate. SP1, drugs or SP1-complexed with drugs was added at the indicated concentrations. The cells were incubated at 37° C. in a humidified atmosphere containing 5% CO2.After 48 hours the medium in the presence or absence of drugs was replaced in each well respectively, to maintain a constant supply of ingredients and drugs. After four days the medium was removed and the number of viable cells in the cultures was determined by spectroscopy.
The human colorectal adenocarcinoma cell line, HT-29, was used to evaluate the biological activity of the SP1-DOX complex, compared to that of the free drug and un-complexed SP1 protein. […] Thus, the SP1-DOX complex is at least as biologically active as free DOX.

[2] = Heat stability (no precipitation after heat treatment); details: 10 min at 100° C. or 30 min at 85° C.
[3] = Oligomeric complex formation by SDS PAGE (unboiled samples); details: boiling and protease stability
Experimental: SP1 (20 μg) was prepared in SDS sample buffer at different SP1-monomer: SDS molar ratios and boiled (or not) (5 mM) prior to SDS-PAGE analysis. Heat stability of SP1 oligomer (10 μg) was tested in the same buffer at SP1-monomer: SDS=1:1733 and heated for 1 to 10 mM at different temperatures.
Purified 6HSP1 and ΔNSP1 were first denatured to the monomeric forms by boiling the proteins in SDS sample buffer. The denatured proteins were then separated in preparative SDS-PAGE, and visualized by Coomassie blue staining. The monomeric forms of two recombinant protein bands were excised. Gel slices that carried monomeric form of 6HSP1 (SEQ ID NO:7) and ΔNSP1 (SEQ ID NO:2) were mixed at 1:1 ratio (v/v). In order to enhance the surface/volume ratio, the gel slices were pulverized using a pestle and mortar in the presence of liquid nitrogen. […] The hetero-oligomeric complex was isolated by subjecting the eluated protein to Ni-NTA Agarose beads and the bound proteins were eluted by 400 mM imidazole using a standard procedure (Sigma protocol for P 6611). […] The composition of hetero-oligomeric SP1 was determined by SDS-PAGE and visualized by silver staining.

[4] = Doxorubicin complex formation and release (ultrafiltration, HPLC, SDS PAGE fluorescence); format: binding; details: reducing conditions (DTT or GSH)
Experimental: Pure wild type SP1 or Cys2 SP1 mutant (1.5 mg/ml in 20 mM Sodium Phosphate buffered, pH=6.8) were incubated overnight at room temp, with DOX 1 mg/ml in the presence of DTT (10 mM), with gentle rolling. Binding reaction was stopped by adding hydrogen peroxide (0.01%), followed by ultra filtration (using 30 kD cutoff filter) and extensive wash until follow-through become colorless. Optical density was measured at both 278 and 477 nm using nanodrop spectrophotometer. Note the dramatic effect of the reducing agent on drug binding by the Cys2 SP1, compared to the absence of effect on the wild type SP1.
FIG. 13 is a histogram illustrating the redox-dependent release of Doxorubicin by Cys2 SP1. Doxorubicin (DOX) was complexed within Cys2 SP1 as described in FIGS. 9-12 above. Release of the drug in the presence of 0, 2 and 20 mM GSH was measured by ultrafiltration and size exclusion HPLC analysis (detection at 228 and 475 nm);
FIG. 14 is a histogram illustrating the effect of oxidation on DOX complex formation by Cys2 SP1. Doxorubicin (DOX) was reacted with Cys2 SP1 and wild type SP1 as described in FIGS. 9-13 above. Oxidized protein indicates exposure to excess of H2O2 prior to treatment with GSH. DOX complex formation was measured by ultrafiltration and size exclusion HPLC analysis (detection at 228 and 475 nm). […] 1=the retentate; 2=the flow through; and 3=a DOX standard 20 μg/ml.
FIG. 17 is a photograph of a fluorescent PAGE analysis illustrating effective complex formation with DOX by Cys2 and SP1 fusion proteins. Recombinant wild type (lanes 1 and 2), Cys2 (lanes 3 and 4), and SP1 fusion proteins having additional N-terminal tumor specific peptide RGD (CRGD, SEQ ID NO:151; fusion protein is SEQ ID NO: 5)(lanes 5 and 6), or RGD in reverse order (RGDC, SEQ ID NO: 152; fusion protein is SEQ ID NO: 6)(lanes 7 and 8) were reacted with DOX to form complex as described in FIGS. 9-14 above, and then separated on SDS-PAGE with (lanes 2, 4, 6 and 8) or without (lanes 1, 3, 5 and 7) denaturation by boiling in LSB.
Ultrafiltration was used for the detection of complex formation with the water soluble ligands FA and DOX which have a distinctive absorption properties and can be determined by spectroscopic measurements. […] Several additional washing cycles remove all remaining free FA and DOX, and the ligand-SP1 complex remains in the retained fraction.
Size exclusion chromatography is a common method for separation of molecules of different sizes under mild conditions and was employed to test FA and DOX complex formation under mild conditions. SP1 is eluted from the column after 7 min and is detected at 278 nm only, and free FA is eluted from the column (TSK G3000 SWXL, Tosohaas) after 16 min and is detected at 490 nm. The SP1-FA and SP1-DOX complexes also eluted at the same time but is detected also at 490 and 475 nm, respectively. DOX/SP1 ratio is determine from the standard curve obtained in solution.
Reverse phase HPLC (RP-HPLC) analysis separates between free DOX, PXT, and SP1. Both compounds bind to the resin (C-18) and are eluted at different acetonitrile concentrations, and detected at both 278 and 225 nm (SP1), 225 nm (PTX) and 477 nm (DOX).
Pyrogen free Cys2 SP1 variant (SEQ ID NO:3) in 20 mM (Na Phosphate buffer pH-6.7) final 2 mg/ml was diluted with DOX solution (Teva, Israel) 1:2 dilution final 1 mg/ml. Where indicated, GSH was added, and the solution is mixed overnight. Where indicated (oxidized), H2O2 is added to 0.1%, buffer added to 3× volume, and the solution is sonicated (3×22 sec. 1:1 pulse/pause at 3% amplitude 0.5 min. pause, using a Vibra-Cell 750 W sonicator).

Molecule: CC(=O)O[C@H]1C(=O)[C@@]2(C)[C@H]([C@H](OC(=O)c3ccccc3)[C@]3(O)C[C@H](OC(=O)[C@H](O)[C@@H](NC(=O)c4ccccc4)c4ccccc4)C(C)=C1C3(C)C)[C@]1(OC(C)=O)CO[C@@H]1C[C@@H]2O [PTX, paclitaxel]
- IC50 ([1]; Homo sapiens, HT-29 cells, dose inhibiting 50% of cell growth, read-out: IC50): ~0.01 µg/mL (≈ 0.0117 µM)
- biological activity after storage in aqueous solution ([1]; at least 3 weeks storage in aqueous solution): becomes inactive

B1: CRGD2: SP1 fusion protein with N-terminal tumor specific peptide CRGD, SEQ ID NO:5 (protein)
chain: MCRGDATRTPKLVKHTLLTRFKDEITREQIDNYINDYTNLLDLIPSMKSFNWGTDLGMESAELNRGYTHAFESTFESKSGLQEYLDSAALAAFAEGFLPTLSQRLVIDYFLY
modifications: Sp1 mutant variant Cys, Arg, Gly and Asp inserted into position 2
- Heat stability [2]: +
- oligomeric complex formation, stability and resistance [3]: formed a boiling stable and protease resistant dodecamer
- oligomeric complex formation, stability and resistance ([3]; listed as CRGD SP1): formed homo- and hetero-oligomeric complexes
- DOX complex formation [4]: effective binding

B2: RGDC2: SP1 fusion protein with N-terminal peptide RGDC, SEQ ID NO:6 (protein)
chain: MRGDCATRTPKLVKHTLLTRFKDEITREQIDNYINDYTNLLDLIPSMKSFNWGTDLGMESAELNRGYTHAFESTFESKSGLQEYLDSAALAAFAEGFLPTLSQRLVIDYFLY
modifications: Sp1 mutant variant Arg, Gly, Asp and Cys inserted into position 2
- Heat stability [2]: +
- oligomeric complex formation, stability and resistance [3]: formed a boiling stable and protease resistant dodecamer
- oligomeric complex formation, stability and resistance ([3]; listed as RGDC SP1): formed homo- and hetero-oligomeric complexes
- DOX complex formation [4]: effective binding
